Positions count from the first letter of the chain named. Numbers in names are those of the source.
T1: FcγRIIa H (FcγRIIa, allotype with His at position 131), extracellular domain with C-terminal His tag (human, UniProt P12318 34-217)
T1 construct: extracellular domain; Soluble receptor expressed in FreeStyle293 cells and used as the analyte in Biacore; also called FcgRIIa H; FcγRIIa type H; not shown: His tag attached to the C terminus
T1 sequence (looked up): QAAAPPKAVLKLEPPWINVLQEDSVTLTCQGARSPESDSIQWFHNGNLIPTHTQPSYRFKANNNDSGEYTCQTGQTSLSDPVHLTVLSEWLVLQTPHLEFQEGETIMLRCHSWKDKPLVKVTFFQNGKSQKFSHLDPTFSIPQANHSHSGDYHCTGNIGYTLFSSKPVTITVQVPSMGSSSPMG

T2: FcγRIIb (human, UniProt P31994 43-217)
T2 construct: extracellular domain; for crystallography expressed with Kifunesine and trimmed with Endo F1; also called FcgRIIb; FcgR2b; not shown: His tag attached to the C terminus
T2 sequence (looked up): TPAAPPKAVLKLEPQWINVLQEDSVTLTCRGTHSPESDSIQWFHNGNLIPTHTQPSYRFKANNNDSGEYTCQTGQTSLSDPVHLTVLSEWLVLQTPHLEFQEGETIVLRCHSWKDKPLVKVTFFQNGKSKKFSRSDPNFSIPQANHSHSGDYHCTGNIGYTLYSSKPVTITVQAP

B1: GpH7-A5/GpH7-B3/GpL16-k0 (antibody, human IgG1, kappa)
heavy 1: not shown
heavy 2: not shown
light: DIVMTQSPLSLPVTPGEPASISCQASESLVHSNRNTYLHWYLQKPGQSPQLLIYKVSNRFSGVPDRFSGSGSGTDFTLKISRVEAEDVGVYYCSQNTHVPPTFGQGTKVEIERTVAAPSVFIFPPSDEQLKSGTASVVCLLNNFYPREAKVQWKVDNALQSGNSQESVTEQDSKDSTYSLSSTLTLSKADYEKHKVYACEVTHQGLSSPVTKSFNRGEC
notes: also called HeCon Ab; control heterodimerized antibody
B2: GpH7-A44/GpH7-B3/GpL16-k0 (antibody, human IgG1, kappa)
heavy 1: QVQLVQSGAEVKKPGASVTVSCKASGYTFTDYEMHWIRQPPGEGLEWIGAIDPKTGDTAYSESFQDRVTLTADKSTSTAYMELSSLTSEDTAVYYCTRFYSYTYWGQGTLVTVSSASTKGPSVFPLAPSSKSTSGGTAALGCLVKDYFPEPVTVSWNSGALTSGVHTFPAVLQSSGLYSLSSVVTVPSSSLGTQTYICNVNHKPSNTKVDKKVEPKSCDKTHTCPPCPAPELLGGPSVFLFPPKPKDTLMISRTPEVTCVVVDVSHEDPEVKFNWYVDGVEVHNAKTKPREEQYNSTYRVVSVLTVLHQDWLNGKEYKCKVSNKALPAPEEKTISKAKGQPREPQVYTLPPSRKELTKNQVSLTCLVKGFYPSDIAVEWESNGQPENNYKTTPPVLDSDGSFFLYSKLTVDKSRWQQGNVFSCSVMHEALHNRYTQKSLSLSP
heavy 2: not shown
light: B1 light
notes: Heterodimerized anti-glypican-3 IgG1; I332E only in the GpH7-A5-derived chain (A44)
B3: GpH7-A44/GpH7-B80/GpL16-k0 (antibody, human IgG1, kappa)
heavy 1: B2 heavy 1
heavy 2: not shown
light: B1 light
notes: Anti-glypican-3 IgG1 with I332E in both H chains
B4: GpH7-A5/GpH7-B80/GpL16-k0 (antibody, human IgG1, kappa)
heavy 1: not shown
heavy 2: not shown
light: B1 light
notes: Heterodimerized anti-glypican-3 IgG1
B5: GpH7-A5/GpH7-B3 variant Y300_07I/GpL16-k0 (heterodimerized antibody, He Ab) (antibody, human IgG1, kappa)
heavy 1: not shown
heavy 2: not shown
light: B1 light
notes: Anti-glypican-3 IgG1; substitution only in the GpH7-B3 chain; Position is EU numbering; also called He Ab Y300I
B6: GpH7-A5/GpH7-B3 variant T335_09D/GpL16-k0 (heterodimerized antibody, He Ab) (antibody, human IgG1, kappa)
heavy 1: not shown
heavy 2: not shown
light: B1 light
notes: Anti-glypican-3 IgG1; substitution only in the GpH7-B3 chain; Position is EU numbering; also called He Ab T335D
B7: GpH7-A5/GpH7-B3 variant T335_08L/GpL16-k0 (heterodimerized antibody, He Ab) (antibody, human IgG1, kappa)
heavy 1: not shown
heavy 2: not shown
light: B1 light
notes: Anti-glypican-3 IgG1; substitution only in the GpH7-B3 chain; Position is EU numbering; also called He Ab T335L
B8: GpH7-A5/GpH7-B3 variant Y300_06M/GpL16-k0 (heterodimerized antibody, He Ab) (antibody, human IgG1, kappa)
heavy 1: not shown
heavy 2: not shown
light: B1 light
notes: Anti-glypican-3 IgG1; substitution only in the GpH7-B3 chain; Position is EU numbering; also called He Ab Y300M
B9: GpH7-A5/GpH7-B3 variant Y300_08L/GpL16-k0 (heterodimerized antibody, He Ab) (antibody, human IgG1, kappa)
heavy 1: not shown
heavy 2: not shown
light: B1 light
notes: Anti-glypican-3 IgG1; substitution only in the GpH7-B3 chain; Position is EU numbering; also called He Ab Y300L
B10: GpH7-A5/GpH7-B3 variant T335_05P/GpL16-k0 (heterodimerized antibody, He Ab) (antibody, human IgG1, kappa)
heavy 1: not shown
heavy 2: not shown
light: B1 light
notes: Anti-glypican-3 IgG1; substitution only in the GpH7-B3 chain; Position is EU numbering; also called He Ab T335P
B11: GpH7-A5/GpH7-B3 variant T335_06M/GpL16-k0 (heterodimerized antibody, He Ab) (antibody, human IgG1, kappa)
heavy 1: not shown
heavy 2: not shown
light: B1 light
notes: Anti-glypican-3 IgG1; substitution only in the GpH7-B3 chain; Position is EU numbering; also called He Ab T335M
B12: GpH7-A26/GpH7-B3/GpL16-k0 (antibody, human IgG1, kappa)
heavy 1: B2 heavy 1 with G235A, E330I
heavy 2: not shown
light: B1 light
notes: G237A in one H chain
B13: GpH7-A26/GpL16-k0 (antibody, human IgG1, kappa)
heavy: B2 heavy 1 with G235A, E330I
light: B1 light
notes: G237A in both H chains
B14: GpH7-A29/GpH7-B3/GpL16-k0 (antibody, human IgG1, kappa)
heavy 1: B2 heavy 1 with G235L, E330I
heavy 2: not shown
light: B1 light
notes: G237L in one H chain
B15: GpH7-A42/GpL16-k0 (antibody, human IgG1, kappa)
heavy: B2 heavy 1 with L326E, E330I
light: B1 light
notes: L328E in both H chains
B16: GpH7-A43/GpH7-B3/GpL16-k0 (antibody, human IgG1, kappa)
heavy 1: B2 heavy 1 with L326D, E330I
heavy 2: not shown
light: B1 light
notes: L328D in one H chain
B17: GpH7-A43/GpL16-k0 (antibody, human IgG1, kappa)
heavy: B2 heavy 1 with L326D, E330I
light: B1 light
notes: L328D in both H chains
B18: GpH7-A42/GpH7-B3/GpL16-k0 (antibody, human IgG1, kappa)
heavy 1: B2 heavy 1 with L326E, E330I
heavy 2: not shown
light: B1 light
notes: L328E in one H chain
B19: GpH7-A29/GpL16-k0 (antibody, human IgG1, kappa)
heavy: B2 heavy 1 with G235L, E330I
light: B1 light
notes: G237L in both H chains

target: T3, FcγRIIIa extracellular domain with C-terminal His tag (human, UniProt P08637 17-208); assay: SPR (Biacore), kinetic analysis, antibody captured, FcγRIIIa as analyte
T3 construct: extracellular domain; also called FcgRIIIa; 3a; not shown: His tag at the C terminus
Source text: Then, the present inventors introduced I332E into only one H chain, and assessed whether the Tm is elevated as compared to when I332E is introduced into both H chains. Expression vectors inserted with GpH7-A44 (SEQ ID NO: 49) and GpH7-B80 (SEQ ID NO: 50) resulting from the introduction of I332E into GpH7-A5 and GpH7-B3, respectively, were constructed. They were combined with GpH7-B3, GpH7-A5, and GpL16-k0 to express and prepare the following antibodies according to the method described in Reference Example 1: the heterodimerized antibodies GpH7-A5/GpH7-B80/GpL16-k0 and GpH7-A44/GpH7-B3/GpL16-k0 in which only one of the H chains was introduced with I332E, and the homodimerized antibody GpH7-A44/GpH7-B80/GpL16-k0 in which both of the H chains were introduced with I332E. GpH7-A5/GpH7-B3/GpL16-k0 was prepared as a control. Each antibody was assessed for the FcγRIIIa-binding activity according to the method described in Reference Example 2. In addition, the antibodies were compared for the Tm of CH2 domain by thermal shift assay according to the method described in Reference Example 5 (Tables 28 and 29).
(§1) Analysis of interaction between objective antibody and the FcγR was carried out using Biacore T100 (GE Healthcare). HBS-EP+ (GE Healthcare) was used as the running buffer, and the measurement temperature was set to 25° C. Chips produced by immobilizing the antigen peptide by the amine coupling method to a Series S Sencor Chip CM5 (GE Healthcare), or alternatively, chips produced by allowing preliminarily biotinylated antigen peptides to interact with and immobilize onto a Series S Sensor Chip SA (certified) (GE Healthcare) were used. Antibodies of interest were captured onto an antigen peptide-immobilized chip, and allowed to interact to each FcγR diluted with running buffer. To regenerate and repeatedly use the chip, the antibodies captured on the chip were washed off by reacting 10 mM glycine-HCl, pH 1.5.
The FcγR-binding activity of each antibody was assessed primarily using as an indicator the FcγR-binding activity and dissociation constant for FcγR.

T3 sequence (P08637 17-208): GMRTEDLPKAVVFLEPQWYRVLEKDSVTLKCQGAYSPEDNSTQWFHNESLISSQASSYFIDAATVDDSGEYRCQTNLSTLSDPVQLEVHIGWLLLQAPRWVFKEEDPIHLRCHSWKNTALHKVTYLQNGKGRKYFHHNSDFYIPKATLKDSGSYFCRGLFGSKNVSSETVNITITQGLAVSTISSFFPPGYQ

KD ratio	Kd [nM]	Binder
1 fold (KD of GpH7-A5/GpH7-B3/GpL16-k0 divided by KD of the antibody)	1600	B1
4.4 fold (KD of GpH7-A5/GpH7-B3/GpL16-k0 divided by KD of the antibody)	370	B2
7.1 fold (KD of GpH7-A5/GpH7-B3/GpL16-k0 divided by KD of the antibody)	230	B3
3.4 fold (KD of GpH7-A5/GpH7-B3/GpL16-k0 divided by KD of the antibody)	470	B4

target: T1, FcγRIIa H (FcγRIIa, allotype with His …); assay: SPR (Biacore T100), antibody captured on antigen-peptide chip, FcγRIIa H as analyte; response per captured antibody relative to GpH7-A5/GpH7-B3/GpL16-k0
Procedure: as §1

He/Con_2aH	Binder
108 relative binding activity (control heterodimerized antibody GpH7-A5/GpH7-B3/GpL16-k0 = 100)	B5
107 relative binding activity (control heterodimerized antibody GpH7-A5/GpH7-B3/GpL16-k0 = 100)	B6
106 relative binding activity (control heterodimerized antibody GpH7-A5/GpH7-B3/GpL16-k0 = 100)	B7
105 relative binding activity (control heterodimerized antibody GpH7-A5/GpH7-B3/GpL16-k0 = 100)	B8
108 relative binding activity (control heterodimerized antibody GpH7-A5/GpH7-B3/GpL16-k0 = 100)	B9
108 relative binding activity (control heterodimerized antibody GpH7-A5/GpH7-B3/GpL16-k0 = 100)	B10
103 relative binding activity (control heterodimerized antibody GpH7-A5/GpH7-B3/GpL16-k0 = 100)	B11

target: T2, FcγRIIb; assay: SPR (Biacore), relative binding
Source text: The constructed expression vectors were each combined with GpH7-A5 and GpL16-k0 to express heterodimerized antibodies, or they were combined with GpL16-k0 alone but not with other H chains to express homodimerized antibodies. These antibodies were expressed and purified according to the method described in Reference Example 1. The resulting purified antibodies are the following: the heterodimerized antibodies GpH7-A5/GpH7-B12/GpL16-k0, GpH7-A5/GpH7-B13/GpL16-k0, GpH7-A5/GpH7-B14/GpL16-k0, and GpH7-A5/GpH7-B15/GpL16-k0; and homodimerized antibodies GpH7-B12/GpL16-k0, GpH7-B13/GpL16-k0, GpH7-B14/GpL16-k0, and GpH7-B15/GpL16-k0. The prepared antibodies were used to assess the binding activity to each FcγR by the method described in Reference Example 2.
as §1

binding result	Binder
binds	B12
binds	B13
binds	B14
binds	B15
binds	B16
binds	B17
binds	B18
binds	B19
